Reference: patent US20260242419A1, “A CYCLIC PEPTIDE FOR TRAPPING INTERLEUKIN-1 BETA” (Merck Sharp & Dohme LLC, priority 2023, published 2026)
Starred links: 1 amine or outer side, 2 acyl side, 3 side chain; linkers in the order of their positions; H or OH if unused. Non-standard residues stand in square brackets, D forms with d. dProc3Bn4Im4NMe = (2R,3S)-3-(4-(1-methyl-1H-imidazol-4-yl)benzyl)pyrrolidine-2-carboxylic acid, Cn1cnc(-c2ccc(C[C@H]3CCN([*:1])[C@H]3C(=O)[*:2])cc2)c1; dProc3Bn4Im2NMe = (2R,3S)-3-(4-(1-methyl-1H-imidazol-2-yl)benzyl)pyrrolidine-2-carboxylic acid, Cn1ccnc1-c1ccc(C[C@H]2CCN([*:1])[C@H]2C(=O)[*:2])cc1; dProc3Bn4Iso3Me = (2R,3S)-3-(4-(3-methylisoxazol-4-yl)benzyl)pyrrolidine-2-carboxylic acid, Cc1nocc1-c1ccc(C[C@H]2CCN([*:1])[C@H]2C(=O)[*:2])cc1; dProc3Bn4Pyr2 = (2R,3S)-3-[[4-(2-pyridyl)phenyl]methyl]pyrrolidine-2-carboxylic acid, O=C([C@H]1[C@@H](Cc2ccc(-c3ccccn3)cc2)CCN1[*:1])[*:2]; dProc3CH2Pyrim = (2R,3S)-3-(pyrimidin-5-ylmethyl)pyrrolidine-2-carboxylic acid, O=C([C@H]1[C@@H](Cc2cncnc2)CCN1[*:1])[*:2]; TyrEtNAc = (2S)-3-[4-(2-acetamidoethoxy)phenyl]-2-amino-propanoic acid, CC(=O)NCCOc1ccc(C[C@H](N[*:1])C(=O)[*:2])cc1; Phe(4-(trans-4-COOH-cHex)) = N[C@@H](Cc1ccc([C@H]2CC[C@H](C(=O)O)CC2)cc1)C(=O)O; Phe(4-(cis-4-COOH-cHex)) = N[C@@H](Cc1ccc([C@H]2CC[C@@H](C(=O)O)CC2)cc1)C(=O)O; Trp(βS-Me,4-F) = C[C@@H](c1c[nH]c2cccc(F)c12)[C@H](N)C(=O)O; 3Aminoazetidine3carboxyl = O=C(C1(N[*:1])CN([*:3])C1)[*:2]; Bip(4'-COOH) = N[C@@H](Cc1ccc(-c2ccc(C(=O)O)cc2)cc1)C(=O)O; dPro(4R-Bzl(4-F)) = O=C(O)[C@H]1C[C@@H](Cc2ccc(F)cc2)CN1; Ala(pyrimidin-5-yl) = N[C@@H](Cc1cncnc1)C(=O)O; Phe(4-COOH) = N[C@@H](Cc1ccc(C(=O)O)cc1)C(=O)O; Pro(cis-4-F) = O=C(O)[C@@H]1C[C@H](F)CN1; 3Pal = N[C@@H](Cc1cccnc1)C(=O)O; 4Pal = N[C@@H](Cc1ccncc1)C(=O)O; αMeK = C[C@](N)(CCCCN)C(=O)O; Api = NC1(C(=O)O)CCNCC1; Dab = NCC[C@H](N)C(=O)O; Dap = NC[C@H](N)C(=O)O; Aib = CC(C)(N)C(=O)O

B1: SEQ ID NO: 69 (peptide)
peptide: cyclo([Phe(4-(cis-4-COOH-cHex))][4Pal][Phe(4-COOH)]G[Pro(cis-4-F)][Trp(βS-Me,4-F)][Aib]EW[3Aminoazetidine3carboxyl][Ala(pyrimidin-5-yl)]Q[Dab]G[dPro(4R-Bzl(4-F))])
SMILES: C[C@@H](c1c[nH]c2cccc(F)c12)[C@@H]1NC(=O)[C@@H]2C[C@H](F)CN2C(=O)CNC(=O)[C@H](Cc2ccc(C(=O)O)cc2)NC(=O)[C@H](Cc2ccncc2)NC(=O)[C@H](Cc2ccc([C@H]3CC[C@@H](C(=O)O)CC3)cc2)NC(=O)[C@H]2C[C@@H](Cc3ccc(F)cc3)CN2C(=O)CNC(=O)[C@H](CCN)NC(=O)[C@H](CCC(N)=O)NC(=O)[C@H](Cc2cncnc2)NC(=O)C2(CNC2)NC(=O)[C@H](Cc2c[nH]c3ccccc23)NC(=O)[C@H](CCC(=O)O)NC(=O)C(C)(C)NC1=O
B2: SEQ ID NO: 70 (peptide)
peptide: cyclo([TyrEtNAc][4Pal][Phe(4-COOH)][Pro(cis-4-F)][Trp(βS-Me,4-F)][Aib]EW[Aib][Ala(pyrimidin-5-yl)]Q[Dab]G[dProc3CH2Pyrim])
SMILES: CC(=O)NCCOc1ccc(C[C@@H]2NC(=O)[C@H]3[C@@H](Cc4cncnc4)CCN3C(=O)CNC(=O)[C@H](CCN)NC(=O)[C@H](CCC(N)=O)NC(=O)[C@H](Cc3cncnc3)NC(=O)C(C)(C)NC(=O)[C@H](Cc3c[nH]c4ccccc34)NC(=O)[C@H](CCC(=O)O)NC(=O)C(C)(C)NC(=O)[C@H]([C@@H](C)c3c[nH]c4cccc(F)c34)NC(=O)[C@@H]3C[C@H](F)CN3C(=O)[C@H](Cc3ccc(C(=O)O)cc3)NC(=O)[C@H](Cc3ccncc3)NC2=O)cc1
B3: SEQ ID NO: 64 (peptide)
peptide: cyclo([Bip(4'-COOH)][4Pal][Phe(4-COOH)]G[Pro(cis-4-F)][Trp(βS-Me,4-F)][Aib]EW[Aib][Ala(pyrimidin-5-yl)]Q[Dab]G[dProc3Bn4Im4NMe])
SMILES: C[C@@H](c1c[nH]c2cccc(F)c12)[C@@H]1NC(=O)[C@@H]2C[C@H](F)CN2C(=O)CNC(=O)[C@H](Cc2ccc(C(=O)O)cc2)NC(=O)[C@H](Cc2ccncc2)NC(=O)[C@H](Cc2ccc(-c3ccc(C(=O)O)cc3)cc2)NC(=O)[C@H]2[C@@H](Cc3ccc(-c4cn(C)cn4)cc3)CCN2C(=O)CNC(=O)[C@H](CCN)NC(=O)[C@H](CCC(N)=O)NC(=O)[C@H](Cc2cncnc2)NC(=O)C(C)(C)NC(=O)[C@H](Cc2c[nH]c3ccccc23)NC(=O)[C@H](CCC(=O)O)NC(=O)C(C)(C)NC1=O
B4: SEQ ID NO: 68 (peptide)
peptide: cyclo([Phe(4-(trans-4-COOH-cHex))][4Pal][Phe(4-COOH)]G[Pro(cis-4-F)][Trp(βS-Me,4-F)][Aib]EW[3Aminoazetidine3carboxyl][Ala(pyrimidin-5-yl)]Q[Dab]G[dPro(4R-Bzl(4-F))])
SMILES: C[C@@H](c1c[nH]c2cccc(F)c12)[C@@H]1NC(=O)[C@@H]2C[C@H](F)CN2C(=O)CNC(=O)[C@H](Cc2ccc(C(=O)O)cc2)NC(=O)[C@H](Cc2ccncc2)NC(=O)[C@H](Cc2ccc([C@H]3CC[C@H](C(=O)O)CC3)cc2)NC(=O)[C@H]2C[C@@H](Cc3ccc(F)cc3)CN2C(=O)CNC(=O)[C@H](CCN)NC(=O)[C@H](CCC(N)=O)NC(=O)[C@H](Cc2cncnc2)NC(=O)C2(CNC2)NC(=O)[C@H](Cc2c[nH]c3ccccc23)NC(=O)[C@H](CCC(=O)O)NC(=O)C(C)(C)NC1=O
B5: SEQ ID NO: 62 (peptide)
peptide: cyclo([Bip(4'-COOH)][4Pal][Phe(4-COOH)]G[Pro(cis-4-F)][Trp(βS-Me,4-F)][Aib]EW[Aib][Ala(pyrimidin-5-yl)]Q[Dab]G[dProc3Bn4Iso3Me])
SMILES: Cc1nocc1-c1ccc(C[C@H]2CCN3C(=O)CNC(=O)[C@H](CCN)NC(=O)[C@H](CCC(N)=O)NC(=O)[C@H](Cc4cncnc4)NC(=O)C(C)(C)NC(=O)[C@H](Cc4c[nH]c5ccccc45)NC(=O)[C@H](CCC(=O)O)NC(=O)C(C)(C)NC(=O)[C@H]([C@@H](C)c4c[nH]c5cccc(F)c45)NC(=O)[C@@H]4C[C@H](F)CN4C(=O)CNC(=O)[C@H](Cc4ccc(C(=O)O)cc4)NC(=O)[C@H](Cc4ccncc4)NC(=O)[C@H](Cc4ccc(-c5ccc(C(=O)O)cc5)cc4)NC(=O)[C@@H]23)cc1
B6: SEQ ID NO: 61 (peptide)
peptide: cyclo([Bip(4'-COOH)][4Pal][Phe(4-COOH)]G[Pro(cis-4-F)][Trp(βS-Me,4-F)][Aib]EW[Aib][Ala(pyrimidin-5-yl)]Q[Dab]G[dProc3Bn4Pyr2])
SMILES: C[C@@H](c1c[nH]c2cccc(F)c12)[C@@H]1NC(=O)[C@@H]2C[C@H](F)CN2C(=O)CNC(=O)[C@H](Cc2ccc(C(=O)O)cc2)NC(=O)[C@H](Cc2ccncc2)NC(=O)[C@H](Cc2ccc(-c3ccc(C(=O)O)cc3)cc2)NC(=O)[C@H]2[C@@H](Cc3ccc(-c4ccccn4)cc3)CCN2C(=O)CNC(=O)[C@H](CCN)NC(=O)[C@H](CCC(N)=O)NC(=O)[C@H](Cc2cncnc2)NC(=O)C(C)(C)NC(=O)[C@H](Cc2c[nH]c3ccccc23)NC(=O)[C@H](CCC(=O)O)NC(=O)C(C)(C)NC1=O
B7: SEQ ID NO: 63 (peptide)
peptide: cyclo([Bip(4'-COOH)][4Pal][Phe(4-COOH)]G[Pro(cis-4-F)][Trp(βS-Me,4-F)][Aib]EW[Aib][Ala(pyrimidin-5-yl)]Q[Dab]G[dProc3Bn4Im2NMe])
SMILES: C[C@@H](c1c[nH]c2cccc(F)c12)[C@@H]1NC(=O)[C@@H]2C[C@H](F)CN2C(=O)CNC(=O)[C@H](Cc2ccc(C(=O)O)cc2)NC(=O)[C@H](Cc2ccncc2)NC(=O)[C@H](Cc2ccc(-c3ccc(C(=O)O)cc3)cc2)NC(=O)[C@H]2[C@@H](Cc3ccc(-c4nccn4C)cc3)CCN2C(=O)CNC(=O)[C@H](CCN)NC(=O)[C@H](CCC(N)=O)NC(=O)[C@H](Cc2cncnc2)NC(=O)C(C)(C)NC(=O)[C@H](Cc2c[nH]c3ccccc23)NC(=O)[C@H](CCC(=O)O)NC(=O)C(C)(C)NC1=O
B8: SEQ ID NO: 66 (peptide)
peptide: cyclo([Bip(4'-COOH)][4Pal][Phe(4-COOH)]G[Pro(cis-4-F)][Trp(βS-Me,4-F)][αMeK]EW[Aib][Ala(pyrimidin-5-yl)]Q[Dab]G[dPro(4R-Bzl(4-F))])
SMILES: C[C@@H](c1c[nH]c2cccc(F)c12)[C@@H]1NC(=O)[C@@H]2C[C@H](F)CN2C(=O)CNC(=O)[C@H](Cc2ccc(C(=O)O)cc2)NC(=O)[C@H](Cc2ccncc2)NC(=O)[C@H](Cc2ccc(-c3ccc(C(=O)O)cc3)cc2)NC(=O)[C@H]2C[C@@H](Cc3ccc(F)cc3)CN2C(=O)CNC(=O)[C@H](CCN)NC(=O)[C@H](CCC(N)=O)NC(=O)[C@H](Cc2cncnc2)NC(=O)C(C)(C)NC(=O)[C@H](Cc2c[nH]c3ccccc23)NC(=O)[C@H](CCC(=O)O)NC(=O)[C@](C)(CCCCN)NC1=O
B9: SEQ ID NO: 7 (peptide)
peptide: cyclo([Bip(4'-COOH)][4Pal][Phe(4-COOH)]G[Pro(cis-4-F)][Trp(βS-Me,4-F)][Aib]EW[Aib][Ala(pyrimidin-5-yl)]Q[Dap]G[dPro(4R-Bzl(4-F))])
SMILES: C[C@@H](c1c[nH]c2cccc(F)c12)[C@@H]1NC(=O)[C@@H]2C[C@H](F)CN2C(=O)CNC(=O)[C@H](Cc2ccc(C(=O)O)cc2)NC(=O)[C@H](Cc2ccncc2)NC(=O)[C@H](Cc2ccc(-c3ccc(C(=O)O)cc3)cc2)NC(=O)[C@H]2C[C@@H](Cc3ccc(F)cc3)CN2C(=O)CNC(=O)[C@H](CN)NC(=O)[C@H](CCC(N)=O)NC(=O)[C@H](Cc2cncnc2)NC(=O)C(C)(C)NC(=O)[C@H](Cc2c[nH]c3ccccc23)NC(=O)[C@H](CCC(=O)O)NC(=O)C(C)(C)NC1=O
B10: SEQ ID NO: 71 (peptide)
peptide: cyclo([Bip(4'-COOH)][4Pal][Phe(4-COOH)]G[Pro(cis-4-F)][Trp(βS-Me,4-F)][Aib]EW[Aib][Ala(pyrimidin-5-yl)]Q[Dab]G[dProc3CH2Pyrim])
SMILES: C[C@@H](c1c[nH]c2cccc(F)c12)[C@@H]1NC(=O)[C@@H]2C[C@H](F)CN2C(=O)CNC(=O)[C@H](Cc2ccc(C(=O)O)cc2)NC(=O)[C@H](Cc2ccncc2)NC(=O)[C@H](Cc2ccc(-c3ccc(C(=O)O)cc3)cc2)NC(=O)[C@H]2[C@@H](Cc3cncnc3)CCN2C(=O)CNC(=O)[C@H](CCN)NC(=O)[C@H](CCC(N)=O)NC(=O)[C@H](Cc2cncnc2)NC(=O)C(C)(C)NC(=O)[C@H](Cc2c[nH]c3ccccc23)NC(=O)[C@H](CCC(=O)O)NC(=O)C(C)(C)NC1=O
B11: SEQ ID NO: 65 (peptide)
peptide: cyclo([Bip(4'-COOH)][4Pal][Phe(4-COOH)]G[Pro(cis-4-F)][Trp(βS-Me,4-F)][Aib]EW[Api][Ala(pyrimidin-5-yl)]Q[Dab]G[dPro(4R-Bzl(4-F))])
SMILES: C[C@@H](c1c[nH]c2cccc(F)c12)[C@@H]1NC(=O)[C@@H]2C[C@H](F)CN2C(=O)CNC(=O)[C@H](Cc2ccc(C(=O)O)cc2)NC(=O)[C@H](Cc2ccncc2)NC(=O)[C@H](Cc2ccc(-c3ccc(C(=O)O)cc3)cc2)NC(=O)[C@H]2C[C@@H](Cc3ccc(F)cc3)CN2C(=O)CNC(=O)[C@H](CCN)NC(=O)[C@H](CCC(N)=O)NC(=O)[C@H](Cc2cncnc2)NC(=O)C2(CCNCC2)NC(=O)[C@H](Cc2c[nH]c3ccccc23)NC(=O)[C@H](CCC(=O)O)NC(=O)C(C)(C)NC1=O

Target: Recombinant human IL-1β (BioLegend 579404) (human, UniProt P01584 117-269)
Experiment: cell-based or functional assay

| Binder | MRC5 IC50 [nM] |
| --- | --- |
| B1 | 0.03 |
| B2 | 0.081 |
| B3 | 0.014 |
| cyclo([Bip(4'-COOH)][4Pal][Phe(4-COOH)]G[Pro(cis-4-F)][Trp(βS-Me,4-F)][Aib]EW[αMeK][Ala(pyrimidin-5-yl)]Q[Dab]G[dPro(4R-Bzl(4-F))]) [SEQ ID NO: 67] | 0.021 |
| cyclo([Bip(4'-COOH)][4Pal][Phe(4-COOH)]G[Pro(cis-4-F)][Trp(βS-Me,4-F)][Aib]EW[Aib][3Pal]Q[Dab]G[dPro(4R-Bzl(4-F))]) [SEQ ID NO: 72] | 0.027 |
| B4 | 0.029 |
| B5 | 0.021 |
| B6 | 0.022 |
| B7 | 0.018 |
| B8 | 0.028 |
| B9 | 0.026 |
| B10 | 0.058 |
| B11 | 0.025 |
